The values that follow come from paper PMC11612440 (2024).

Read-outs that look alike come from different tables or passages of the source.

For experiment [1], the target named is T1, BCL11B protein, MBP-tag-fused recombinant (pETMBP.3C-Bcl11b) (mouse, UniProt Q99PV8 1-884).
T1 chain: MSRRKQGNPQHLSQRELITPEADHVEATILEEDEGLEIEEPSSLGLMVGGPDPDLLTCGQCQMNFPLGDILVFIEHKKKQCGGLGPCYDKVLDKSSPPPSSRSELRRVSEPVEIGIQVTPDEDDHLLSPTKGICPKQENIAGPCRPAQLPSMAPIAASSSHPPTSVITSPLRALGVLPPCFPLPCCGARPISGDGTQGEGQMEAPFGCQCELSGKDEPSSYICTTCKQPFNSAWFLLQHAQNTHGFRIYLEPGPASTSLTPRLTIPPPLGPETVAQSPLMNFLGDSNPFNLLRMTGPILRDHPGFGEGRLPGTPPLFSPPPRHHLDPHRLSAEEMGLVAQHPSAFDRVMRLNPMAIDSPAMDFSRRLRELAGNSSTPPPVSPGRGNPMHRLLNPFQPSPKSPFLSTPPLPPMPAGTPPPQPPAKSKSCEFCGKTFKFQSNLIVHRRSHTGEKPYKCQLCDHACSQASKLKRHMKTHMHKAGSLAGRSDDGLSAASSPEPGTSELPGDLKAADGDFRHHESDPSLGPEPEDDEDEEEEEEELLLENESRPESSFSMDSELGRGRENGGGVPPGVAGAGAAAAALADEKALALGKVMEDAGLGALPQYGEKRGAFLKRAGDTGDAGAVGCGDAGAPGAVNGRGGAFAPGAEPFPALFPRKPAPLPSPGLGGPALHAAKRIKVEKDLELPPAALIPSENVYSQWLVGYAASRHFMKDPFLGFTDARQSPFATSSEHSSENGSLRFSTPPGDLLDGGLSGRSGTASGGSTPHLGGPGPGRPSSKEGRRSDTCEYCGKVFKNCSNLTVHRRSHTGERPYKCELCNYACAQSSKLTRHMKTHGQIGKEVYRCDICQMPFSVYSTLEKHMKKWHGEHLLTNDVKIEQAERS
Briefly: SPR. A general note: In SPR one partner is held on a chip, and binding of the other changes the refractive index at the surface.

Experiment [2] deals with T1, BCL11B protein, MBP-tag-fused …. The experiment is described as follows: SPR.

B1: β-catenin, MBP-tag-fused recombinant (pETMBP.3C-β-catenin) (natural protein)
chain: MATQADLMELDMAMEPDRKAAVSHWQQQSYLDSGIHSGATTTAPSLSGKGNPEEEDVDTSQVLYEWEQGFSQSFTQEQVADIDGQYAMTRAQRVRAAMFPETLDEGMQIPSTQFDAAHPTNVQRLAEPSQMLKHAVVNLINYQDDAELATRAIPELTKLLNDEDQVVVNKAAVMVHQLSKKEASRHAIMRSPQMVSAIVRTMQNTNDVETARCTAGTLHNLSHHREGLLAIFKSGGIPALVKMLGSPVDSVLFYAITTLHNLLLHQEGAKMAVRLAGGLQKMVALLNKTNVKFLAITTDCLQILAYGNQESKLIILASGGPQALVNIMRTYTYEKLLWTTSRVLKVLSVCSSNKPAIVEAGGMQALGLHLTDPSQRLVQNCLWTLRNLSDAATKQEGMEGLLGTLVQLLGSDDINVVTCAAGILSNLTCNNYKNKMMVCQVGGIEALVRTVLRAGDREDITEPAICALRHLTSRHQEAEMAQNAVRLHYGLPVVVKLLHPPSHWPLIKATVGLIRNLALCPANHAPLREQGAIPRLVQLLVRAHQDTQRRTSMGGTQQQFVEGVRMEEIVEGCTGALHILARDVHNRIVIRGLNTIPLFVQLLYSPIENIQRVAAGVLCELAQDKEAAEAIEAEGATAPLTELLHSRNEGVATYAAAVLFRMSEDKPQDYKKRLSVELTSSLFRTEPMAWNETADLGLDIGAQGEALGYRQDDPSYRSFHSGGYGQDALGMDPMMEHEMGGHHPGADYPVDGLPDLGHAQDLMDGLPPGDSNQLAWFDTDL
The Kd is a measure of binding affinity in units of concentration. On to B1, for which, in experiment [1], the Kd worked out at 0.609 nM.

B2: MBD3, MBP-tag-fused recombinant (pETMBP.3C-Mbd3) (natural protein)
chain: MERKRWECPALPQGWEREEVPRRSGLSAGHRDVFYYSPSGKKFRSKPQLARYLGGSMDLSTFDFRTGKMLMNKMNKSRQRVRYDSSNQVKGKPDLNTALPVRQTASIFKQPVTKITNHPSNKVKSDPQKAVDQPRQLFWEKKLSGLSAFDIAEELVRTMDLPKGLQGVGPGCTDETLLSAIASALHTSTLPITGQLSAAVEKNPGVWLNTAQPLCKAFMVTDDDIRKQEELVQQVRKRLEEALMADMLAHVEELARDGEAPLDKACAEEEEEEEEEEEEPEPERV
Turning to B2, in experiment [2], the Kd stood at 2.42 nM.
